B1: Alexa-488-labeled Stu1-TOG1 with a KCK tag (domain or fragment)
chain: NSNTNTHPDDSFPLYTVFKDESVPIEEKMALLTRFKGHVKKELVNESSIQAYFAALLFISGHYAYRSYPRLIFLSHSSLCYLIKRVAMQSPVQFNDTLVEQLLNHLIFELPNEKKFWLASIKAIEAIYLVNPSKIQAILANFLRRPSENQNGDYLNRIKSTLLTIDELIQINEKNNSNHLQLLRFFMLSFTNLLNNNLNEHANDDNNNVIIELIFDIMYKYLKMDDENSQDLIDGFINDLEVEKFKQKFISLAKSQDQHGSQEDKS
modifications: Alexa-488 label
B2: Alexa-488-labeled Stu1-TOG2 with a KCK tag (domain or fragment)
chain: DPAMKKNYESLNQLQQDLENLLAPFQSVKETEQNWKLRQSNIIELDNIISGNIPKDNPEEFVTVIKEVQLIELISRATSSLRTTLSLTALLFLKRLIHILNDQLPLSILDQIFVIFKNLLSSTKKISSQTAFHCLITLIIDINHFHNKLFQLSFLLINEKTVTPRFCSAILLRSFLIKFNDSNLSLNNSNTTSPTSKLENNIIYIEEWLKKGISDSQTTVREAMRLTFWYFYKCYPTNAKRLLSSSFSPQLKKATELAIPAHL
modifications: Alexa-488 label

Experiments:
[1] = target: yeast αβ-tubulin (wild type) (yeast (overexpressed in S. cerevisiae)) (UniProt P09733); experiment: AUC
[2] = target: Yeast tubulin with a C-terminal … tag, ReAsH-labeled (yeast (overexpressed in S. cerevisiae)) (UniProt P09733); experiment: TIRF microscopy microtubule-binding titration

Molecule | Kd [1] [µM] | Kd [2] [µM]
Stu1-TOG2 (305-567) (from UniProt P38198 305-567) (domain or fragment) | 1.68 | 
B1 |  | 40
B2 |  | 12
